Measurements from patent US20250163181A1.
pKd: −log10 of the molar value.

Tests used:
[1] = target: human prothrombin wild-type (human) (UniProt P00734); test: SPR, calculated from Kd
[2] = target: prothrombin variant S91A/Y93A (human) (UniProt P00734); test: SPR, calculated from Kd
[3] = target: kringle-2 of human prothrombin (amino acids 156-271) (human) (UniProt P00734); test: SPR, calculated from Kd
[4] = target: human prothrombin wild-type (human) (UniProt P00734); test: SPR, AHP immobilised, HEPES buffer, 25 C
[5] = target: prothrombin variant S91A/Y93A (human) (UniProt P00734); test: SPR, AHP immobilised, HEPES buffer, 25 C
[6] = target: kringle-2 of human prothrombin (amino acids 156-271) (human) (UniProt P00734); test: SPR, AHP immobilised, HEPES buffer, 25 C
[7] = target: human prothrombin wild-type (human) (UniProt P00734); test: ELISA, antigen immobilised, Hill fit
[8] = target: prothrombin variant S91A/Y93A (human) (UniProt P00734); test: ELISA, antigen immobilised, Hill fit
[9] = target: kringle-2 of human prothrombin (amino acids 156-271) (human) (UniProt P00734); test: ELISA, antigen immobilised, Hill fit
[10] = target: human prothrombin wild-type (human) (UniProt P00734); test: SPR, AHP immobilised; prothrombin with 200 µM argatroban (open form)
[11] = target: human prothrombin wild-type (human) (UniProt P00734); test: SPR, calculated from Kd; prothrombin with 200 µM argatroban

Substance: Antibody AHP (Prolytix AHP-5013)
- ΔG [1]: -10.1 kcal/mol
- ΔG [2]: -10.5 kcal/mol
- ΔG [3]: -10.3 kcal/mol
- pKd [4]: 7.42
- koff [4]: 0.000136 s⁻¹
- kon [4]: 3540 M⁻¹ s⁻¹
- pKd [5]: 7.71
- koff [5]: 0.000123 s⁻¹
- kon [5]: 6320 M⁻¹ s⁻¹
- pKd [6]: 7.56
- koff [6]: 0.000128 s⁻¹
- kon [6]: 4600 M⁻¹ s⁻¹
- EC50 [7]: 0.195 µg/mL
- EC50 [8]: 0.185 µg/mL
- EC50 [9]: 0.249 µg/mL
- pKd [10]: 7.43
- koff [10]: 0.000122 s⁻¹
- kon [10]: 3270 M⁻¹ s⁻¹
- ΔG [11]: -10.1 kcal/mol
